Values quoted from earlier work as cited in paper PMC9240770.

Biological target: TREM-1 (Mus musculus) (UniProt Q9JKE2)
Assay: SPR

Sequence of UniProt Q9JKE2 (Q9JKE2 21-230): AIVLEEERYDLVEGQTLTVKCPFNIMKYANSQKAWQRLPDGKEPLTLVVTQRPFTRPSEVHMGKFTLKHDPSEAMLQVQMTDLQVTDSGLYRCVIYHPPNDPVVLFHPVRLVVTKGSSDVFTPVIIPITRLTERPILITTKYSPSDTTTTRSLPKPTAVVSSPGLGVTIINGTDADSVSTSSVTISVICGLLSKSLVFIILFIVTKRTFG

Row | Kd | Substance
1 | 0.117 µM | CIRP (from UniProt P60824)
2 | 35.4 µM | HMGB1 (from UniProt P63158)
